Results published in publication PMC7614096, “Head-to-tail polymerization by VEL proteins underpins cold-induced Polycomb silencing in flowering control” (Cell Reports, 2022).

B1: Lip-VIN3VEL (residues 500–603), wild type [Arabidopsis thaliana] / itself (parent)
chain: GKQGGNKRFKSRTVSLNEKPEINNAANGVGDKDLGHIVKTIRCLEEEGHIDKSFRERFLTWYSLRATHREVRVVKIFVETFMEDLSSLGQQLVDTFSESILSKR
B2: Lip-VEL1VEL (residues 589–692), wild type [Arabidopsis thaliana] / itself (parent)
chain: SDEIKNRQARIEISMKDNCNNGDHSANGGTESGLEHCVKIIRQLECSGHIDKNFRQKFLTWYSLRATSQEIRVVKIFIDTFIDDPMALAEQLIDTFDDRVSIKR

Assays:
Assay in all cases: SEC-MALS
itself [1] = variants of: B1; conditions: with itself; predicted molecular mass 20.3 kDa; concentration not given
itself [2] = variants of: B1; conditions: with itself; predicted molecular mass 20.3 kDa; concentration not given; remark: listed apart in the source
itself [3] = variants of: B2; conditions: with itself; 255 µM sample; predicted molecular mass 23.4 kDa
itself [4] = variants of: B2; conditions: with itself; 255 µM sample; predicted molecular mass 23.4 kDa; remark: listed apart in the source

Variant	screen value (itself [1]) [molecules]	screen value (itself [2]) [kDa]	screen value (itself [3]) [molecules]	screen value (itself [4]) [kDa]
GKQGGNKRFKSRTVSLNEKPEINNAANGVGDKDLGHIVKTIRCLEEEGHIDKSFREDFLTWYSLRATHREVRVVKIFVETFMEDLSSLGQQLVDTFSESILSKR [chain 1 R57D]	1.2	24.6		
GKQGGNKRFKSRTVSLNEKPEINNAANGVGDKDLGHIVKTIHCLEEEGHIDKSFRERFLTWYSLRATHREVRVVKIFVETFMEDLSSLGQQLVDTFSESILSKR [chain 1 R42H]	1.2	23.8		
GKQGGNKRFKSRTVSLNEKPEINNAANGVGDKDLGHIVKTIRCLEEEGHIDKSFRERFLTWYSDRATHREVRVVKIFVETFMEDLSSLGQQLVDTFSESILSKR [chain 1 L64D]	1.6	33.5		
SDEIKNRQARIEISMKDNCNNGDHSANGGTESGLEHCVKIIRQLECSGHIDKNFAQDFLTWYSLRATSQEIRVVKIFIDTFIDDPMALAEQLIDTFDDRVSIKR [chain 1 R55A K57D]			1.1	25
